Consider 3 proteins from US11485987B2, “Methods for inducing bioorthogonal reactivity” (University of Delaware, priority 2015, dated 2022).

Numbering of substitutions follows the chain as printed. Numbers in names are those of the source.

Assay type in all cases: biochemical
Substrate in series [1]: O=C(O)CCC(=O)Nc1ccc(C2=NNC(c3ccccn3)=NN2)nc1
As to the kind of experiment: Horseradish peroxidase (HRP) catalyzed oxidation of DHTz to tetrazine. Conditions: other: HRP, peroxide-free, PBS containing EDTA (2.0 mM); pH 7.4; 25.0 °C. On the procedure: Upon addition of horseradish peroxidase (15 nM) the UV-vis spectrum was monitored every 10 seconds. With 50% conversion after 100 seconds, complete conversion of 3a to 4a is observed after 600 seconds, as evidenced by the decrease in the absorption at 292 nm and increase at 325 nm with an isosbestic point at 303 nm. Similar spectral changes are observed when 3a is electrochemically oxidized to 4a in aqueous solution, or when the oxidation of 3a to 4a is photocatalyzed by methylene blue. […] Methylene blue was considered a particularly attractive sensitizer due to its clinical relevance, low molecular weight, low toxicity, high solubility, and an absorption spectrum (λmax 665 nm) that extends to the near IR. Further, methylene blue has previously been explored for applications in photodynamic therapy based on oxidation of indole-3-acetic acid. Rose bengal (λmax 550 nm), used in a range of biomedical applications, was also identified as an excellent sensitizer. […] Methylene blue (4 μM) also catalyzed the conversion of 3a to 4a in the presence of ambient light, with 47% conversion noted after 2 h. […] The mechanism of photooxidation more likely involves electron transfer and is the subject of ongoing study.
As a complement to these photocatalyzed reactions, the inventors observed that HRP can efficiently catalyze the oxidation of 3a in the dark at low enzyme concentration (15 nM) (FIG. 4). While HRP typically requires H2O2 as the terminal oxidant, the addition of HRP to a peroxide-free solution of 3a (30 μM) in PBS led to the rapid formation of 4a (FIG. 4, panel B). […]
Solutions (1 mL) containing 3a (30 μm) in PBS buffer were prepared in a cuvette from stock solutions. Oxidation of 3a to 4a was monitored by recording absorbance at 325 nm every 10 seconds while either hydrogen peroxide (2 mM), HRP (15 nM) or both were added (FIG. 4, panel B). […] The oxidation rate was determined by observing the conversion of 3a to 4a in the first 10 seconds after mixing in HRP (15 nM) and subtracting the background oxidation prior to the addition of HRP.

Substrate in series [2]: O=C(O)CCCC(=O)Nc1ccc(C2=NNC(c3ccccn3)=NN2)nc1
As to the kind of experiment: Oxidation of DHT by APEX2, UV-Vis initial rates and kinetic parameters. Conditions: pH 7.4, 25.0 °C. On the procedure: (§1) UV-Vis and fluorescence measurements were conducted in quartz cuvettes. All reactions were conducted in phosphate buffered saline (PBS) containing 100 μM EDTA with a pH=7.4. The PBS was prepared by adding 25 mM phosphate salts (Na2HPO4 and NaH2PO4), 100 mM NaCl, 100 μM EDTA to DI water. EDTA was added to quench free metals that can oxidize DHT. The buffer was pH adjusted to 7.4 using 1 mM HCl and 1 mM NaOH. UV experiments were stirred at 25° C. in a temperature-controlled cuvette holder of the spectrophotometer. Solutions of 15 or 16 were prepared from methanol stock solutions.
(§2) 15 or 16 (60 μM) from methanol stock solutions was added to PBS containing 100 μM EDTA. After 10s, APEX2 (SEQ ID NO:1) (275 nM) was dosed in and oxidation was monitored at 325 nm for 15 and 285 nm for 16 at 60s intervals (FIG. 10B-C).
(§3) 16 (15 μM) DHT from methanol stock solutions was added to PBS containing 100 μM EDTA. After 10s, APEX2 (SEQ ID NO:1) (275 nM) or HRP (15 nM) was dosed in and oxidation was monitored at 285 nm at 10s intervals (FIG. 10D)
(§4) SOD (1 μM) was added to PBS containing 100 μM EDTA. 15 or 16 (60 μM) was added from methanol stock solutions. After 10s, APEX2 (SEQ ID NO:1) or F41A APEX2 (275 nM) was dosed in and oxidation was monitored at 325 nm for 15 and 285 nm for 16 at 60s intervals.
(§5) The initial rate of oxidation was calculated from the first 100 seconds after APEX2 (SEQ ID NO:1) or F41A APEX2 was added ([…]). In the assays where SOD was added, SOD (1 μM) was added to PBS containing 100 μM EDTA and 15 or 16 was dosed in. 10 seconds later, APEX2 (SEQ ID NO:1) or F41A APEX2 ([…]) was added and the rate of oxidation was calculated from the first 100 seconds after APEX2 (SEQ ID NO:1) or F41A APEX2 ([…]) addition. The initial rate of oxidation was adjusted to background oxidation of DHT in PBS with 100 μM EDTA. Kinetic parameters (Table 2) were determined using GraphPad's Prism 6 software from the data presented below (Table 3-4).

Substrate in series [3]: CCCCNC(=O)C1=NNC(c2ccccn2)=NN1
The description is as above. The settings on record: pH 7.4, 25.0 °C. On the procedure: as §1, §2, §3, §4, §5

Substrate in series [4]: O=C(O)CCCC(=O)Nc1ccc(C2=NNC(c3ccccn3)=NN2)nc1
As to the kind of experiment: Oxidation of DHT by F41A APEX2, UV-Vis initial rates and kinetic parameters. Conditions: other: F41A APEX2 + SOD; pH 7.4; 25.0 °C. On the procedure: as §1, §4, §5

Substrate in series [5]: CCCCNC(=O)C1=NNC(c2ccccn2)=NN1
The series is described as above. Conditions: other: F41A APEX2 + SOD; pH 7.4; 25.0 °C. On the procedure: as §1, §4, §5

The mark [6] stands for this setting: other: APEX2 (SEQ ID NO: 1) + SOD.
The mark [7] stands for this setting: other: APEX2 (SEQ ID NO: 1), no SOD.

B1: horseradish peroxidase (HRP) (Armoracia rusticana) (protein)
chain: QLTPTFYDNSCPNVSNIVRDTIVNELRSDPRIAASILRLHFHDCFVNGCDASILLDNTTSFRTEKDAFGNANSARGFPVIDRMKAAVESACPRTVSCADLLTIAAQQSVTLAGGPSWRVPLGRRDSLQAFLDLANANLPAPFFTLPQLKDSFRNVGLNRSSDLVALSGGHTFGKNQCRFIMDRLYNFSNTGLPDPTLNTTYLQTLRGLCPLNGNLSALVDFDLRTPTIFDNKYYVNLEEQKGLIQSDQELFSSPNATDTIPLVRSFANSTQTFFNAFVEAMDRMGNITPLTGTQGQIRLNCRVVNSNS
As for B1, in series [1], the Michaelis constant (Km) (in general, the substrate concentration at which the rate is half of its maximum) was found to be 100 µM; the kcat (in general, the maximal rate divided by the concentration of active sites) was 27 s⁻¹; the kcat/Km (usually the second-order rate constant that governs catalysis at low substrate concentration) worked out at 270000 M⁻¹ s⁻¹.

B2: APEX2 (SEQ ID NO:1) (Glycine max; A134P/E112K/K14D/W41F) (protein)
chain: MGKSYPTVSADYQDAVEKAKKKLRGFIAEKRCAPLMLRLAFHSAGTFDKGTKTGGPFGTIKHPAELAHSANNGLDIAVRLLEPLKAEFPILSYADFYQLAGVVAVEVTGGPKVPFHPGREDKPEPPPEGRLPDPTKGSDHLRDVFGKAMGLTDQDIVALSGGHTIGAAHKERSGFEGPWTSNPLIFDNSYFTELLSGEKEGLLQLPSDKALLSDPVFRPLVDKYAADEDAFFADYAEAHQKLSELGFADA
Turning to B2, the Km in series [2] (setting [6]) came to 41.41 µM; in series [2] (setting [7]), 47.56 µM; in series [3] (setting [6]), 17.29 µM; in series [3] (setting [7]), 22.61 µM. Moreover, the kcat in series [2] (setting [6]) was determined as 0.247 s⁻¹; in series [2] (setting [7]), 0.197 s⁻¹; in series [3] (setting [6]), 0.115 s⁻¹; in series [3] (setting [7]), 0.077 s⁻¹. Besides, the kcat/Km in series [2] (setting [6]) came to 5956 M⁻¹ s⁻¹; in series [2] (setting [7]), 4134 M⁻¹ s⁻¹; in series [3] (setting [6]) it was 6662 M⁻¹ s⁻¹; in series [3] (setting [7]), 3426 M⁻¹ s⁻¹.

B3: F41A APEX2 (Glycine max; A134P/E112K/K14D/W41A) (protein)
chain: B2 chain with F41A
B3: in series [4], the Km was 263 µM, the kcat came out at 1.72 s⁻¹ and the kcat/Km amounted to 6533 M⁻¹ s⁻¹. In series [5], the Km turned out to be 104.6 µM, the kcat turned out to be 0.408 s⁻¹ and the kcat/Km is 3900 M⁻¹ s⁻¹.
